Experiments:
[1] = biological target: GWS1B form II RubisCO (CbbM) from an uncultivated Gallionellaceae species (uncultivated Gallionellaceae sp. (groundwater aquifer metagenome)); experiment: SEC
[2] = biological target: GWS1B form II RubisCO (CbbM) from an uncultivated Gallionellaceae species (uncultivated Gallionellaceae sp. (groundwater aquifer metagenome)); experiment: crystal structure
[3] = biological target: GWS1B form II RubisCO (CbbM) from an uncultivated Gallionellaceae species (uncultivated Gallionellaceae sp. (groundwater aquifer metagenome)); experiment: SEC-MALS

Measured: stoichiometry N

GWS1B form II RubisCO (CbbM) from an uncultivated Gallionellaceae species (enzyme)
6: [1] | [2] | [3]
